Sequences and labels used below:
B1: RSAD1 (parent)
chain: YCNFNKYIPRRLEEAAMQKCLVTE
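Further: lentivirally expressed fusions sorted by FACS into six bins by GFP to DsRed ratio, PSI derived from sequencing read proportions per bin multiplied by bin number.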

The variants in the series derive from B1. As to the kind of experiment: protein stability index of a GFP-peptide fusion (GPS, HEK-293T) (PSI 1-6); higher = more stable. Particulars: c terminus: a fixed tail appended.
Consider YCNFNKYIPRRLEEAAMTKCLVTE, for which the protein stability index stood at 1.89. For the variant YCNFNKYIPRRLEEAAMMKCLVTE, the protein stability index stood at 3.17. The figure for YCNFNKYIPRRLEEAAMVKCLVTE is 3.15; for YCNFNKYIPRRLEEAAMFKCLVTE it is 2.34.

Consider YCNFNKYIPRRLEEAAMGKCLVTE, for which the protein stability index is 1.76. Turning to YCNFNKYIPRRLEEAAMYKCLVTE, the protein stability index came to 2.88.

Consider YCNFNKYIPRRLEEAAMSKCLVTE, for which the protein stability index was determined as 2.02. The figure for YCNFNKYIPRRLEEAAMNKCLVTE is 3.44; for YCNFNKYIPRRLEEAAMKKCLVTE it is 2.15; for YCNFNKYIPRRLEEAAMDKCLVTE it is 1.84. For YCNFNKYIPRRLEEAAMPKCLVTE the value was 1.96; for YCNFNKYIPRRLEEAAMRKCLVTE, 2.03.

For the variant YCNFNKYIPRRLEEAAMHKCLVTE, the protein stability index came to 1.88. Turning to YCNFNKYIPRRLEEAAMIKCLVTE, the protein stability index stood at 2.76.

Turning to YCNFNKYIPRRLEEAAMLKCLVTE, the protein stability index turned out to be 1.71.

Regarding YCNFNKYIPRRLEEAAMAKCLVTE, the protein stability index was 1.75. The figure for YCNFNKYIPRRLEEAAMCKCLVTE is 2.41; for YCNFNKYIPRRLEEAADQKCLVTE it is 3.71; for YCNFNKYIPRRLEEAALQKCLVTE it is 1.96.

Turning to YCNFNKYIPRRLEEAAKQKCLVTE, the protein stability index was found to be 2.85.

On to YCNFNKYIPRRLEEAAEQKCLVTE, for which the protein stability index is 2.44. For YCNFNKYIPRRLEEAAAQKCLVTE the value was 1.98; for YCNFNKYIPRRLEEAATQKCLVTE, 3.45; for YCNFNKYIPRRLEEAAHQKCLVTE, 3.23. Turning to YCNFNKYIPRRLEEAANQKCLVTE, the protein stability index is 2.11. Turning to YCNFNKYIPRRLEEAAYQKCLVTE, the protein stability index is 2.85. Turning to YCNFNKYIPRRLEEAAQQKCLVTE, the protein stability index was 2.57.

For the variant YCNFNKYIPRRLEEAAGQKCLVTE, the protein stability index came out at 1.99.

With YCNFNKYIPRRLEEAARQKCLVTE, the protein stability index is 1.71.

As to YCNFNKYIPRRLEEAACQKCLVTE, the protein stability index was determined as 1.72. Consider YCNFNKYIPRRLEEAAWQKCLVTE, for which the protein stability index is 2.1. Consider YCNFNKYIPRRLEEAAVQKCLVTE, for which the protein stability index worked out at 2. YCNFNKYIPRRLEEAAPQKCLVTE: the protein stability index came out at 1.92. On to YCNFNKYIPRRLEEAAIQKCLVTE, for which the protein stability index was 2.82. On to YCNFNKYIPRRLEEAAFQKCLVTE, for which the protein stability index was found to be 1.67. Regarding YCNFNKYIPRRLEEAAMQKALVTE, the protein stability index came out at 2.87.

Turning to YCNFNKYIPRRLEEAAMQKHLVTE, the protein stability index was 2.31.

For YCNFNKYIPRRLEEAAMQKKLVTE, the protein stability index is 2.11. For the variant YCNFNKYIPRRLEEAAMQKILVTE, the protein stability index is 3.05.

For YCNFNKYIPRRLEEAAMQKFLVTE, the protein stability index was 2.7.

Regarding YCNFNKYIPRRLEEAAMQKDLVTE, the protein stability index was determined as 2.56.

Consider YCNFNKYIPRRLEEAAMQKLLVTE, for which the protein stability index came out at 2.91. For YCNFNKYIPRRLEEAAMQKELVTE, the protein stability index is 2.02. For the variant YCNFNKYIPRRLEEAAMQKGLVTE, the protein stability index was 2.9. On to YCNFNKYIPRRLEEAHMQKCLVTE, for which the protein stability index stood at 3.97. For the variant YCNFNKYIPRRLEEAIMQKCLVTE, the protein stability index was found to be 3.03. YCNFNKYIPRRLEEACMQKCLVTE: the protein stability index stood at 3.34. For the variant YCNFNKYIPRRLEEAQMQKCLVTE, the protein stability index is 2.23. Take YCNFNKYIPRRLEEATMQKCLVTE: the protein stability index came out at 2.39. For YCNFNKYIPRRLEEAVMQKCLVTE the value was 2.98; for YCNFNKYIPRRLEEAYMQKCLVTE, 2.16; for YCNFNKYIPRRLEEARMQKCLVTE, 2.39.

Take YCNFNKYIPRRLEEADMQKCLVTE: the protein stability index came out at 2.54.

As for YCNFNKYIPRRLEEAKMQKCLVTE, the protein stability index was determined as 3.53. In the case of YCNFNKYIPRRLEEAWMQKCLVTE, the protein stability index amounted to 1.79. Regarding YCNFNKYIPRRLEEAFMQKCLVTE, the protein stability index amounted to 1.74. For the variant YCNFNKYIPRRLEEASMQKCLVTE, the protein stability index came to 2.56. For YCNFNKYIPRRLEEAMMQKCLVTE the value was 1.57; for YCNFNKYIPRRLEEALMQKCLVTE, 1.41. For YCNFNKYIPRRLEEANMQKCLVTE, the protein stability index came to 3.66.

In the case of YCNFNKYIPRRLEWAAMQKCLVTE, the protein stability index amounted to 1.96. For YCNFNKYIPRRLEYAAMQKCLVTE the value was 1.33; for YCNFNKYIPRRLEEAAMQSCLVTE, 2.41. In the case of YCNFNKYIPRRLEEAAMQTCLVTE, the protein stability index was determined as 2.01. With YCNFNKYIPRRLEEAAMQGCLVTE, the protein stability index stood at 2.12. In the case of YCNFNKYIPRRLEEAAMQICLVTE, the protein stability index was determined as 2.25. The figure for YCNFNKYIPRRLEEAAMQQCLVTE is 2.96; for YCNFNKYIPRRLEEAAMQYCLVTE it is 2.31. Turning to YCNFNKYIPRRLEEAAMQPCLVTE, the protein stability index worked out at 2.76.

Turning to YCNFNKYIPRRLEEAAMQHCLVTE, the protein stability index is 1.7. For YCNFNKYIPRRLEEAAMQCCLVTE the value was 2.08; for YCNFNKYIPRRLEEAAMQVCLVTE, 1.48. In the case of YCNFNKYIPRRLEEAAMQLCLVTE, the protein stability index was determined as 3.06.

Turning to YCNFNKYIPRRLEEAAMQNCLVTE, the protein stability index was determined as 2.37.

Regarding YCNFNKYIPRRLEEAAMQDCLVTE, the protein stability index came to 1.68. In the case of YCNFNKYIPRRLEEAAMQECLVTE, the protein stability index is 2.71. The figure for YCNFNKYIPRRLEEAAMQWCLVTE is 2.37; for YCNFNKYIPRRLEEAAMQMCLVTE it is 4.09; for YCNFNKYIPRRLEEPAMQKCLVTE it is 2.85.

With YCNFNKYIPRRLEEVAMQKCLVTE, the protein stability index is 3.4.

For YCNFNKYIPRRLEEHAMQKCLVTE, the protein stability index is 3.35. YCNFNKYIPRRLEEWAMQKCLVTE: the protein stability index was 1.04. For YCNFNKYIPRRLEEEAMQKCLVTE the value was 1.84; for YCNFNKYIPRRLEEIAMQKCLVTE, 1.56. As for YCNFNKYIPRRLEEDAMQKCLVTE, the protein stability index is 2.55.

Consider YCNFNKYIPRRLEECAMQKCLVTE, for which the protein stability index was 1.83. The figure for YCNFNKYIPRRLEELAMQKCLVTE is 2.23.

For the variant YCNFNKYIPRRLEEQAMQKCLVTE, the protein stability index was determined as 2.24. For the variant YCNFNKYIPRRLEEMAMQKCLVTE, the protein stability index was 2.14. YCNFNKYIPRRLEEFAMQKCLVTE: the protein stability index amounted to 2.02. As for YCNFNKYIPRRLEETAMQKCLVTE, the protein stability index was 3.34.

On to YCNFNKYIPRRLEENAMQKCLVTE, for which the protein stability index turned out to be 2.09. YCNFNKYIPRRLEEKAMQKCLVTE: the protein stability index turned out to be 1.69. With YCNFNKYIPRRLEEYAMQKCLVTE, the protein stability index amounted to 2.61.

(Values after the supplement of paper PMC10567573.)
